US20060040881

Test system: Coagulation factor IX/IXa (Macaca fascicularis)
Experiment: inhibition
Conditions: guggaCUaUaCCgCgUaaUgCuGcCUccacT; lower case 2'-OMe, upper case C/U 2'-F, upper case A/G 2'-OH, 3' idT; concentration inhibiting about 90% of plasma FIX activity (APTT 1.6-fold); >95% at 10-12 ug/mL; cynomolgus plasma; text cites Apt39 as SEQ ID NO:88

**Q.** How did the activity turn out when GUGGACUAUACCGCGUAAUGCUGCCUCCAC [Apt39] was run?
**A.** 6 µg/mL
